This is an account of results in paper PMC9958131 (Nature Communications, 2023).

This data set has as its system recombinant human PAD2 and PAD4. Description: Citrullination site mapping by trypsin digestion and mass spectrometry; protein-level modifications over native, PAD2- and PAD4-citrullinated samples combined. The note with it: trypsin digest, Sequest HT search; co-identified proteins in the fibrinogen and vimentin samples (native, PAD2-cit, PAD4-cit); not split by sample or enzyme. Type of data set: biochemical. From the text:
Description: Raw mass spectrometry data for proteolytic mapping of fibrinogen, vimentin, and hnRNP A2/B1 by cathepsins B, S, and H (sheets 1-6); citrullination site mapping of fibrinogen and vimentin by trypsin digestion (sheets 7-8); and the natural antigen processing assay with native, PAD2-citrullinated (PAD2-cit), and PAD4-citrullinated (PAD4-cit) fibrinogen (sheets 9-11).

B1: Tubulin beta-4A chain (protein, UniProt P04350 1-444, looked up)
Tubulin beta-4A chain: MREIVHLQAGQCGNQIGAKFWEVISDEHGIDPTGTYHGDSDLQLERINVYYNEATGGNYVPRAVLVDLEPGTMDSVRSGPFGQIFRPDNFVFGQSGAGNNWAKGHYTEGAELVDAVLDVVRKEAESCDCLQGFQLTHSLGGGTGSGMGTLLISKIREEFPDRIMNTFSVVPSPKVSDTVVEPYNATLSVHQLVENTDETYCIDNEALYDICFRTLKLTTPTYGDLNHLVSATMSGVTTCLRFPGQLNADLRKLAVNMVPFPRLHFFMPGFAPLTSRGSQQYRALTVPELTQQMFDAKNMMAACDPRHGRYLTVAAVFRGRMSMKEVDEQMLSVQSKNSSYFVEWIPNNVKTAVCDIPPRGLKMAATFIGNSTAIQELFKRISEQFTAMFRRKAFLHWYTGEGMDEMEFTEAESNMNDLVSEYQQYQDATAEEGEFEEEAEEEVA
On to B1, for which the “Modifications (Deamidated [R...] = citrullinated arginine positions found)” value (“Modifications” below) was “Deamidated [R2]”.

B2: Carboxypeptidase N subunit 2 (protein, UniProt P22792 22-545, looked up)
Carboxypeptidase N subunit 2: CPMGCDCFVQEVFCSDEELATVPLDIPPYTKNIIFVETSFTTLETRAFGSNPNLTKVVFLNTQLCQFRPDAFGGLPRLEDLEVTGSSFLNLSTNIFSNLTSLGKLTLNFNMLEALPEGLFQHLAALESLHLQGNQLQALPRRLFQPLTHLKTLNLAQNLLAQLPEELFHPLTSLQTLKLSNNALSGLPQGVFGKLGSLQELFLDSNNISELPPQVFSQLFCLERLWLQRNAITHLPLSIFASLGNLTFLSLQWNMLRVLPAGLFAHTPCLVGLSLTHNQLETVAEGTFAHLSNLRSLMLSYNAITHLPAGIFRDLEELVKLYLGSNNLTALHPALFQNLSKLELLSLSKNQLTTLPEGIFDTNYNLFNLALHGNPWQCDCHLAYLFNWLQQYTDRLLNIQTYCAGPAYLKGQVVPALNEKQLVCPVTRDHLGFQVTWPDESKAGGSWDLAVQERAARSQCTYSNPEGTVVLACDQAQCRWLNVQLSPQQGSLGLQYNASQEWDLRSSCGSLRLTVSIEARAAGP
As for B2, the “Modifications” value was “Deamidated [R89; R449]”.

B3: Complement factor H-related protein 5 (protein, UniProt Q9BXR6 19-569, looked up)
Complement factor H-related …: EGTLCDFPKIHHGFLYDEEDYNPFSQVPTGEVFYYSCEYNFVSPSKSFWTRITCTEEGWSPTPKCLRMCSFPFVKNGHSESSGLIHLEGDTVQIICNTGYSLQNNEKNISCVERGWSTPPICSFTKGECHVPILEANVDAQPKKESYKVGDVLKFSCRKNLIRVGSDSVQCYQFGWSPNFPTCKGQVRSCGPPPQLSNGEVKEIRKEEYGHNEVVEYDCNPNFIINGPKKIQCVDGEWTTLPTCVEQVKTCGYIPELEYGYVQPSVPPYQHGVSVEVNCRNEYAMIGNNMITCINGIWTELPMCVATHQLKRCKIAGVNIKTLLKLSGKEFNHNSRIRYRCSDIFRYRHSVCINGKWNPEVDCTEKREQFCPPPPQIPNAQNMTTTVNYQDGEKVAVLCKENYLLPEAKEIVCKDGRWQSLPRCVESTAYCGPPPSINNGDTTSFPLSVYPPGSTVTYRCQSFYKLQGSVTVTCRNKQWSEPPRCLDPCVVSEENMNKNNIQLKWRNDGKLYAKTGDAVEFQCKFPHKAMISSPPFRAICQEGKFEYPICE
In the case of B3, the “Modifications” value was “Deamidated [R69]”.

B4: Galectin-3-binding protein (protein, UniProt Q08380 19-585, looked up)
Galectin-3-binding protein: VNDGDMRLADGGATNQGRVEIFYRGQWGTVCDNLWDLTDASVVCRALGFENATQALGRAAFGQGSGPIMLDEVQCTGTEASLADCKSLGWLKSNCRHERDAGVVCTNETRSTHTLDLSRELSEALGQIFDSQRGCDLSISVNVQGEDALGFCGHTVILTANLEAQALWKEPGSNVTMSVDAECVPMVRDLLRYFYSRRIDITLSSVKCFHKLASAYGARQLQGYCASLFAILLPQDPSFQMPLDLYAYAVATGDALLEKLCLQFLAWNFEALTQAEAWPSVPTDLLQLLLPRSDLAVPSELALLKAVDTWSWGERASHEEVEGLVEKIRFPMMLPEELFELQFNLSLYWSHEALFQKKTLQALEFHTVPFQLLARYKGLNLTEDTYKPRIYTSPTWSAFVTDSSWSARKSQLVYQSRRGPLVKYSSDYFQAPSDYRYYPYQSFQTPQHPSFLFQDKRVSWSLVYLPTIQSCWNYGFSCSSDELPVLGLTKSGGSDRTIAYENKALMLCEGLFVADVTDFEGWKAAIPSALDTNSSKSTSSFPCPAGHFNGFRTVIRPFYLTNSSGVD
In the case of B4, the “Modifications” value is “Deamidated [R63; R426; R435; R436; R570]”.

B5: Keratin, type II cuticular Hb5 (protein, UniProt P78386 1-507, looked up)
Keratin, type II cuticular Hb5: MSCRSYRISSGCGVTRNFSSCSAVAPKTGNRCCISAAPYRGVSCYRGLTGFGSRSLCNLGSCGPRIAVGGFRAGSCGRSFGYRSGGVCGPSPPCITTVSVNESLLTPLNLEIDPNAQCVKQEEKEQIKSLNSRFAAFIDKVRFLEQQNKLLETKWQFYQNQRCCESNLEPLFSGYIETLRREAECVEADSGRLASELNHVQEVLEGYKKKYEEEVALRATAENEFVVLKKDVDCAYLRKSDLEANVEALVEESSFLRRLYEEEIRVLQAHISDTSVIVKMDNSRDLNMDCIIAEIKAQYDDVASRSRAEAESWYRSKCEEMKATVIRHGETLRRTKEEINELNRMIQRLTAEIENAKCQRAKLEAAVAEAEQQGEAALSDARCKLAELEGALQKAKQDMACLLKEYQEVMNSKLGLDIEIATYRRLLEGEEHRLCEGVGSVNVCVSSSRGGVSCGGLSYSTTPGRQITSGPSAIGGSITVVAPDSCAPCQPRSSSFSCGSSRSVRFA
Turning to B5, the “Modifications” value is “Deamidated [R142]”.

B6: Angiotensinogen (protein, UniProt P01019 25-476, looked up)
Angiotensinogen: DRVYIHPFHLVIHNESTCEQLAKANAGKPKDPTFIPAPIQAKTSPVDEKALQDQLVLVAAKLDTEDKLRAAMVGMLANFLGFRIYGMHSELWGVVHGATVLSPTAVFGTLASLYLGALDHTADRLQAILGVPWKDKNCTSRLDAHKVLSALQAVQGLLVAQGRADSQAQLLLSTVVGVFTAPGLHLKQPFVQGLALYTPVVLPRSLDFTELDVAAEKIDRFMQAVTGWKTGCSLMGASVDSTLAFNTYVHFQGKMKGFSLLAEPQEFWVDNSTSVSVPMLSGMGTFQHWSDIQDNFSVTQVPFTESACLLLIQPHYASDLDKVEGLTFQQNSLNWMKKLSPRTIHLTMPQLVLQGSYDLQDLLAQAELPAILHTELNLQKLSNDRIRVGEVLNSIFFELEADEREPTESTQQLNKPEVLEVTLNRPFLFAVYDQSATALHFLGRVANPLSTA
Turning to B6, the “Modifications” value was “Deamidated [R237]”.

B7: Kininogen-1 (protein, UniProt P01042 19-644, looked up)
Kininogen-1: QESQSEEIDCNDKDLFKAVDAALKKYNSQNQSNNQFVLYRITEATKTVGSDTFYSFKYEIKEGDCPVQSGKTWQDCEYKDAAKAATGECTATVGKRSSTKFSVATQTCQITPAEGPVVTAQYDCLGCVHPISTQSPDLEPILRHGIQYFNNNTQHSSLFMLNEVKRAQRQVVAGLNFRITYSIVQTNCSKENFLFLTPDCKSLWNGDTGECTDNAYIDIQLRIASFSQNCDIYPGKDFVQPPTKICVGCPRDIPTNSPELEETLTHTITKLNAENNATFYFKIDNVKKARVQVVAGKKYFIDFVARETTCSKESNEELTESCETKKLGQSLDCNAEVYVVPWEKKIYPTVNCQPLGMISLMKRPPGFSPFRSSRIGEIKEETTVSPPHTSMAPAQDEERDSGKEQGHTRRHDWGHEKQRKHNLGHGHKHERDQGHGHQRGHGLGHGHEQQHGLGHGHKFKLDDDLEHQGGHVLDHGHKHKHGHGHGKHKNKGKKNGKHNGWKTEHLASSSEDSTTPSAQTQEKTEGPTPIPSLAKPGVTVTFSDFQDSDLIATMMPPISPAPIQSDDDWIPDIQIDPNGLSFNPISDFPDTTSPKCPGRPWKSVSEINPTTQMKESYYFDLTDGLS
Regarding B7, the “Modifications” value was “Deamidated [R269; R389; R392]”.

B8: Keratin, type II cuticular Hb6 (protein, UniProt O43790 1-486, looked up)
Keratin, type II cuticular Hb6: MTCGSYCGGRAFSCISACGPRPGRCCITAAPYRGISCYRGLTGGFGSHSVCGGFRAGSCGRSFGYRSGGVCGPSPPCITTVSVNESLLTPLNLEIDPNAQCVKQEEKEQIKSLNSRFAAFIDKVRFLEQQNKLLETKLQFYQNRECCQSNLEPLFEGYIETLRREAECVEADSGRLASELNHVQEVLEGYKKKYEEEVSLRATAENEFVALKKDVDCAYLRKSDLEANVEALIQEIDFLRRLYEEEIRVLQSHISDTSVVVKLDNSRDLNMDCIIAEIKAQYDDIVTRSRAEAESWYRSKCEEMKATVIRHGETLRRTKEEINELNRMIQRLTAEVENAKCQNSKLEAAVAQSEQQGEAALSDARCKLAELEGALQKAKQDMACLIREYQEVMNSKLGLDIEIATYRRLLEGEEQRLCEGVGSVNVCVSSSRGGVVCGDLCASTTAPVVSTRVSSVPSNSNVVVGTTNACAPSARVGVCGGSCKRC
For B8, the “Modifications” value is “Deamidated [R125]”.
